In the nanobody polyreactivity screen of Harvey et al. (2022):

Assay: yeast display, Sf9 membrane polyspecificity reagent, FACS + sequencing; frameworks hold sequencing errors
Procedure, shortened: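 A nanobody's polyreactivity label depends on the gate it was sorted from. Yeast display cells were stained with 10% biotinylated, detergent-solubilized Sf9 membrane reagent for 1 hour at 4 °C, enriched on streptavidin microbeads and sorted by FACS. The low and high (top ~1%) gates were set on anti-HA fluorescence for expression and streptavidin fluorescence for reagent binding.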

Sequence | polyreactivity (PSR sort gate)
QVQLVESGGGLDQAGGSLRLSCAASGSIFDSYVMGWYRQAPGKERDLVAAFSRGGSTYYADSVKGRFTISRDNAQNTVYLQINSLKPEDTSVYYCAAGYRVHSPDDCYWGQGTQVTVSS | low polyreactivity
QVQLVESGGGLDQAGGSLRLSCAASGSIFGYYAMGWYRQAPGKERELVAAISWSDGSTYYADSVKGRFTISRDNAKNTVYLQMNSLKPEDTAVYSCAARFTPYITSDDGHYDYWGQGTEVTVSS | low polyreactivity
QVQLVESGGGLDQAGGSLRLSCAASGSIFRGYAMGWYRQAPGKERDLVAAINRSGGRTYYADSVKGRFTISRDNAKNTVYLQMNRLKPEDTAVYYCAADYFFYQPSGYDYWGQGTQVTVSS | high polyreactivity
QVQLVESGGGLDQAGGSLRLSCAASGSIFRNYAMGWYRQAPGKEREFVAAISGGGGSTYYADSVKGRFTISRDNAKNTVYLQMNSLKPEDTAVYYCARVRYYGALKLYAYDHWGQGTQVTVSS | high polyreactivity
QVQLVESGGGLDQAGGSLRLSCAASGSIFRPYTMGWYRQAPGKERELVAAITGTCGSTRYADSVKGRFTISRDNAKNTVYLQMNSLNPEDNAVYYCAVYPPYRGRYDYRKYDSWGQGTQVTVSS | low polyreactivity
QVQLVESGGGLDQAGGSLRLSCAASGSIFRYYAMGWYRQAPGKEREFVASITYRGGRTYYADSVKGRFTISRDNAKNTVYLQMNSLKPEDTAVYYCAARTRAGAWTSKYHDYWGQGTQVTVSS | high polyreactivity
QVQLVESGGGLDQAGGSLRLSCAASGSIFRYYVMGWYRQAPGKERELVAAISWSGGTTYYADSVKGRFTISRDNAKNTVYLQMNSLKPEDTAVYYCAAKGPLGYYHATDYHDYWGQGTQVTVSS | high polyreactivity
QVQLVESGGGLDQAGGSLRLSCAASGSIFSYYAMGWYRPAPGKERELVADNRWSGGSTYYADSVKGRFTISRDKAKNTVYLQMNSLKPEDTAVYYCNTLYLVYLYWTSPTPSDLFDYWGQGTQVTVSS | low polyreactivity
QVQLVESGGGLDQAGGSLRLSCAASGSIFSYYAMGWYRQAPGKERELVAAITIRGGRTYYADSVKGRFTISRDNAKNTVYLQMNSLKPEDTAVYYCAADWLNSDPYNYWGQGTQVTVSS | low polyreactivity
QVQLVESGGGLDQAGGSLRLSCAASGSIFTYYAIGWYRQAPGKERELVADISQRGGSTYYADSVKGRFTISRDNAKNTVYLQMISLKPEDTAVYYCATRARYTWRAFEYWGQGTQVNVSS | low polyreactivity
QVQLVESGGGLDQAGGSLRLSCAASGSIFVIYAMGWYRQAPGKERELVAAIRFSTGSTYYADSVKGRFTISRDNAKNTVYLQMNSLKPEDTAVYYCAARTFKYGSYAYEYWGQGTQVTVSS | high polyreactivity
QVQLVESGGGLDQAGGSLRLSCAASGSIFVTNVMGGYRQAPGKERELVAAISSSGTRTYADSVKGRFTISRDNAKNTVYLQMNSLKTEDTAVYYCAKDYRVWVAATIAHDYWGQGTQVTVSS | low polyreactivity
QVQLVESGGGLDQAGGSLRLSCAASGSIFWAYVMGWYRQAPGKERELVARISSGGRTKYADSVKGRFTISRDNAKNTVYLQMNSLKPEDTAVYYCNADASSSPYTDRQYIGADDSWGHGTQVTVSS | low polyreactivity
QVQLVESGGGLDQAGGSLRLSCAASGSIFYFNAMGWYRQAPGKARELVAAISTSGGSTYADSVKGRFTISRDNAKYTVYLQMNSLKPEDSAVYYFAADYLTSRSRTFDYWGQGTQVTVSS | low polyreactivity
QVQLVESGGGLDQAGGSLRLSCAASGSIFYTNAMGWYRQAPRKERELVAAITSADSTYYADSVKGRFTISRDNANNTVYLQMNSLKPEDTAFYYCANDVYYYYRWYEYWGQGTQVTVSS | high polyreactivity
QVQLVESGGGLDQAGGSLRLSCAASGSIILVNAMGWYRQAPGKERELVAAISWRGGRTRYADSVKGRFTISRDNAKNTVYLQMNSLKPEDTAVYYCAAAGRPVGPRYDYWGQGTQVTVSS | high polyreactivity
QVQLVESGGGLDQAGGSLRLSCAASGSTFGTYAMGWYRQAPGKEWQLVADITGSGGSTYYADSVKGRFTISRDNAKNTVYLQMNSLKPEDTAVYYCAGEYGLGDDTAYGYWGQGTQGTVSS | low polyreactivity
QVQLVESGGGLDQAGGSLRLSCAASGSTFKHNAMGWYRQAPGKERKLVAGISWGGSSTYYADSVKGRFTISRDNAKNTVYLQMNSLKPEDTAVYYCAKGGYRRYGYDYWGQGTQETVSS | low polyreactivity
QVQLVESGGGLDQAGGSLRLSCAASGSTFPKYGMGWYRQSPGKDREFVARINWNGGGTYYADSVKGRFTISRDNAKNTVYLQMNSLKPEDTAVYYCAADYEYYYFWDYYWGQGTQVTVSS | low polyreactivity
QVQLVESGGGLDQAGGSLRLSCAASGSTFRQNVKGWYRQAPGKERELVAAISKSGGSTYYADSVKGRFTISRDNAKNTVYLQMNSLKPEDTAVYYCATRQRQRVDNREYYYWGQGTQVTVSS | high polyreactivity
QVQLVESGGGLDQAGGSLRLSCAASGSTFVGYAMGWYRQAPGKERELVAAISYSGGRTYYADSVKGRFTISRDNAKNTVYLQMNSLKPEDTAVYYCAALVGGSGWWGRDYWGQGTQVTVSS | high polyreactivity
